We go through 2 molecules from article PMC12160003 (Cell, 2025).

Where two headings read alike, the source gives them in different places.

Assay [1] has as its target T1, Flag/His-tagged recombinant human DNMT1 protein (human, UniProt P26358 1-1616). Briefly: co-IP.
Assay [2] concerns the target T1, Flag/His-tagged recombinant human DNMT1 …. Briefly: co-IP. The source holds these as a separate data set.

T1 sequence (P26358 whole entry): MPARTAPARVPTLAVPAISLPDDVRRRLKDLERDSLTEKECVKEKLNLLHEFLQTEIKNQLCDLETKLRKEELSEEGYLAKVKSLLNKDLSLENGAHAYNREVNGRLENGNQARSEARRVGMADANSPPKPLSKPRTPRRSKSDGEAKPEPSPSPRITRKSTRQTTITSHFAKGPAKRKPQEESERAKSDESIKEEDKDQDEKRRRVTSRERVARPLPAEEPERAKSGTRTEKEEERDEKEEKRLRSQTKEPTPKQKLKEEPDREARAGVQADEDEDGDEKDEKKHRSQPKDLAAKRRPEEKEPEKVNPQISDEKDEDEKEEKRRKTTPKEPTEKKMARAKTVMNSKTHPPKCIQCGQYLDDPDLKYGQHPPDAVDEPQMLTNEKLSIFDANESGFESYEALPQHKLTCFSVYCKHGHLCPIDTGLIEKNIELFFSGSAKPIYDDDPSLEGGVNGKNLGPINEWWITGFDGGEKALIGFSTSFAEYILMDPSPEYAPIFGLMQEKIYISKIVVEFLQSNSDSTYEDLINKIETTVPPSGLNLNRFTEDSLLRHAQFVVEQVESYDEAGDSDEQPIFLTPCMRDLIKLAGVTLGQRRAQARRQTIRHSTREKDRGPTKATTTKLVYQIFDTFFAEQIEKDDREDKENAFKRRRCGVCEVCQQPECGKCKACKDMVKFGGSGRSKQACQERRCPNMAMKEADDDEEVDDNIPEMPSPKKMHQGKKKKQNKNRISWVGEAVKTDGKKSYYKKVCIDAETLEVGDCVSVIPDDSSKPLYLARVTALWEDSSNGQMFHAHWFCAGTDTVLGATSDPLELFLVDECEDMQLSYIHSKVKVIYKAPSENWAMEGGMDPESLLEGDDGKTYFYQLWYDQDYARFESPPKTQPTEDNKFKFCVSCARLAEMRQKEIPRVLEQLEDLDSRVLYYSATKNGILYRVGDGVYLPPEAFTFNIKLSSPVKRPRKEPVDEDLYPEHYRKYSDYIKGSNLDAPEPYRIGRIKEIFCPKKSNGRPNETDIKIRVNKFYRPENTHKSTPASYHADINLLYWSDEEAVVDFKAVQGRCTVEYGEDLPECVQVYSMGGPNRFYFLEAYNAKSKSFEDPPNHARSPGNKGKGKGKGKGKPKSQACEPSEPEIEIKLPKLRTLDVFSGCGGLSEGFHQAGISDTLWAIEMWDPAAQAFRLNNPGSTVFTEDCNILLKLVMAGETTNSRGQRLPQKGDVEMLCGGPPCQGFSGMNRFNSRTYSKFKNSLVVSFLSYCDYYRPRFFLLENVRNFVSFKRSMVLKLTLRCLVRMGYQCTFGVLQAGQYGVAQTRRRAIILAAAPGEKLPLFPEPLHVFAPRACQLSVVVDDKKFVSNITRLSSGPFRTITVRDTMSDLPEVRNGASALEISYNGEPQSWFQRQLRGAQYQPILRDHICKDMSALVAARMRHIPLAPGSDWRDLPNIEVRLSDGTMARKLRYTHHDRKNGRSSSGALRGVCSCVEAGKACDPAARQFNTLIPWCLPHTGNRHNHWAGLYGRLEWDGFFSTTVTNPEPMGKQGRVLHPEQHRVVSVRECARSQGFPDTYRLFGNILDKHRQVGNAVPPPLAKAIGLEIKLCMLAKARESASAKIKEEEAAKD

B1: Human Recombinant GST-METTL14 (natural protein, UniProt Q9HCE5 1-456, looked up)
chain: MDSRLQEIRERQKLRRQLLAQQLGAESADSIGAVLNSKDEQREIAETRETCRASYDTSAPNAKRKYLDEGETDEDKMEEYKDELEMQQDEENLPYEEEIYKDSSTFLKGTQSLNPHNDYCQHFVDTGHRPQNFIRDVGLADRFEEYPKLRELIRLKDELIAKSNTPPMYLQADIEAFDIRELTPKFDVILLEPPLEEYYRETGITANEKCWTWDDIMKLEIDEIAAPRSFIFLWCGSGEGLDLGRVCLRKWGYRRCEDICWIKTNKNNPGKTKTLDPKAVFQRTKEHCLMGIKGTVKRSTDGDFIHANVDIDLIITEEPEIGNIEKPVEIFHIIEHFCLGRRRLHLFGRDSTIRPGWLTVGPTLTNSNYNAETYASYFSAPNSYLTGCTEEIERLRPKSPPPKSKSDRGGGAPRGGGRGGTSAGRGRERNRSNFRGERGGFRGGRGGAHRGGFPPR
With B1, in assay [1], the binding result is given as “binds”.

B2: Flag-tagged recombinant human METTL14 protein (natural protein, UniProt Q9HCE5 1-456, looked up)
chain: MDSRLQEIRERQKLRRQLLAQQLGAESADSIGAVLNSKDEQREIAETRETCRASYDTSAPNAKRKYLDEGETDEDKMEEYKDELEMQQDEENLPYEEEIYKDSSTFLKGTQSLNPHNDYCQHFVDTGHRPQNFIRDVGLADRFEEYPKLRELIRLKDELIAKSNTPPMYLQADIEAFDIRELTPKFDVILLEPPLEEYYRETGITANEKCWTWDDIMKLEIDEIAAPRSFIFLWCGSGEGLDLGRVCLRKWGYRRCEDICWIKTNKNNPGKTKTLDPKAVFQRTKEHCLMGIKGTVKRSTDGDFIHANVDIDLIITEEPEIGNIEKPVEIFHIIEHFCLGRRRLHLFGRDSTIRPGWLTVGPTLTNSNYNAETYASYFSAPNSYLTGCTEEIERLRPKSPPPKSKSDRGGGAPRGGGRGGTSAGRGRERNRSNFRGERGGFRGGRGGAHRGGFPPR
B2: in assay [2], the binding result is given as “binds”.
